CN116199779A (BEIJING DONGFANG BIOTECH CO LTD; BEIJING JINGYI TAIXIANG …, dated 2023)

B1: MB-Ⅰ 鼠源抗LILRB4单克隆抗体 (mouse IgG1, Ck) (antibody)
heavy: QVQLQESGAELVKPGASVKLSCKASGYTFTNYWMHWVKQRPGQGLEWIGEINPSNGRTNYNEKFKTKATLTVDKSSSTAYMQLSSLTSEDSAVYYCARWGQLGLREGYYAVDYWGQGTSVTVSSAKTTPPSVYPLAPGSAAQTNSMVTLGCLVKGYFPEPVTVTWNSGSLSSGVHTFPAVLQSDLYTLSSSVTVPSSTWPSETVTCNVAHPASSTKVDKKIVPRDCGCKPCICTVPEVSSVFIFPPKPKDVLTITLTPKVTCVVVDISKDDPEVQFSWFVDDVEVHTAQTQPREEQFNSTFRSVSELPIMHQDWLNGKEFKCRVNSAAFPAPIEKTISKTKGRPKAPQVYTIPPPKEQMAKDKVSLTCMITDFFPEDITVEWQWNGQPAENYKNTQPIMDTDGSYFVYSKLNVQKSNWEAGNTFTCSVLHEGLHNHHTEKSLSHSPG
light: DIVMTQSPSSLSASLGDRVTISCRASQDISNYLNWYQQKPDGTVKLLIYYTSRLHSGVPSRFSGSGSGTDYSLTISNLEQEDIATYFCQQGNTLPPTFGGGTKLEIKADAAPTVSIFPPSSEQLTSGGASVVCFLNNFYPKDINVKWKIDGSERQNGVLNSWTDQDSKDSTYSMSSTLTLTKDEYERHNSYTCEATHKTSTSPIVKSFNRNEC
notes: also called MB-I; 鼠源抗体MB-Ⅰ
B2: MA-Ⅰ 鼠源抗LILRB4单克隆抗体 (mouse IgG1, Ck) (antibody)
heavy: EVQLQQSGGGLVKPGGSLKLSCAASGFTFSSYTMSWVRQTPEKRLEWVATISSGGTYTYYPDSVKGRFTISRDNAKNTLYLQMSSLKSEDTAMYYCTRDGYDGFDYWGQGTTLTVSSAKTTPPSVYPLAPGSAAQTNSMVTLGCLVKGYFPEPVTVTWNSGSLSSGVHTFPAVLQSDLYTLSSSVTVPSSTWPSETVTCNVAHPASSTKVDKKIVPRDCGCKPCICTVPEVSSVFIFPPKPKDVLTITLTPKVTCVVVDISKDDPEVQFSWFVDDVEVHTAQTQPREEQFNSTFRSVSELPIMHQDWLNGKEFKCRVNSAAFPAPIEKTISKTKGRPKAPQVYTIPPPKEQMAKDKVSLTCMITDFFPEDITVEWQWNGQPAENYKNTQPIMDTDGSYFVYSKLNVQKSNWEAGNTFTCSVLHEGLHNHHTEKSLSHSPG
light: DIVMTQTTLSLPVSPGDQASISCRSSQSLAHSNGNTYLHWYLQKPGQSPKLLIYKVSNRFSGVPDRFSGSGSGTDFTLKISRVEAEDLGVYFCSQSTLVPTFGGGTKLEIKADAAPTVSIFPPSSEQLTSGGASVVCFLNNFYPKDINVKWKIDGSERQNGVLNSWTDQDSKDSTYSMSSTLTLTKDEYERHNSYTCEATHKTSTSPIVKSFNRNEC
notes: also called MA-I; 鼠源抗体MA-Ⅰ

What was measured:
[1] = molecular target: T1, LILRB4抗原 (人LILRB4蛋白胞外段) (human, UniProt Q8NHJ6 22-259); experiment: ELISA, coated LILRB4, anti-mouse IgG-HRP
T1 construct: extracellular domain; also called 白细胞免疫球蛋白样受体亚家族B成员4

[2] = molecular target: T2, LILRA1 (UniProt O75019 17-461, limits assumed); experiment: ELISA, coated protein 100ng/well
T2 construct: construct not described
T2 sequence (O75019 17-461 limits assumed): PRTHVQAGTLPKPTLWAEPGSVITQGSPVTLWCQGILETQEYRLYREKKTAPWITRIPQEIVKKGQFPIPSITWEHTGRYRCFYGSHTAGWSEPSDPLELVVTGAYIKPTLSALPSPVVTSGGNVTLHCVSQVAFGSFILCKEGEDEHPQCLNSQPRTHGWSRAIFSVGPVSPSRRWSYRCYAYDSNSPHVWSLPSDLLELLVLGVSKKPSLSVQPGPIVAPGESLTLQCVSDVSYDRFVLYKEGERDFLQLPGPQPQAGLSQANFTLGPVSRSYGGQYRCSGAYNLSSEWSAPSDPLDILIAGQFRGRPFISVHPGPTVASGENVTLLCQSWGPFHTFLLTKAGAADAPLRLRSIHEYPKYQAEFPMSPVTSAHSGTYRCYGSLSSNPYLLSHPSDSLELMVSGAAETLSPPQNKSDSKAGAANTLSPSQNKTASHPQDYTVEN

[3] = molecular target: T3, LILRA4 (UniProt P59901 24-446, limits assumed); experiment: ELISA, coated protein 100ng/well
T3 construct: construct not described
T3 sequence (P59901 24-446 limits assumed): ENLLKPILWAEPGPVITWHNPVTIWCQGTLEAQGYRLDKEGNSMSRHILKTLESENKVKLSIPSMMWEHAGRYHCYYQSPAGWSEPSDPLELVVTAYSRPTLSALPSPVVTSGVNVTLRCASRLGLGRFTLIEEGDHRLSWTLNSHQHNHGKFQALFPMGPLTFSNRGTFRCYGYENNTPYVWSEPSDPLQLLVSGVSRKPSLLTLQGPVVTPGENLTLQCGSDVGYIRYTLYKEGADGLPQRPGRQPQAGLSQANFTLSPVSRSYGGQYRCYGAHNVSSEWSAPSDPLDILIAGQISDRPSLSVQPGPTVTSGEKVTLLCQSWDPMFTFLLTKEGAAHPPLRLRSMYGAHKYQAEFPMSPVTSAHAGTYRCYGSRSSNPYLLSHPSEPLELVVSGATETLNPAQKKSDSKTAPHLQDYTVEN

[4] = molecular target: T4, LILRA6 (UniProt Q6PI73 24-447, limits assumed); experiment: ELISA, coated protein 100ng/well
T4 construct: construct not described
T4 sequence (Q6PI73 24-447 limits assumed): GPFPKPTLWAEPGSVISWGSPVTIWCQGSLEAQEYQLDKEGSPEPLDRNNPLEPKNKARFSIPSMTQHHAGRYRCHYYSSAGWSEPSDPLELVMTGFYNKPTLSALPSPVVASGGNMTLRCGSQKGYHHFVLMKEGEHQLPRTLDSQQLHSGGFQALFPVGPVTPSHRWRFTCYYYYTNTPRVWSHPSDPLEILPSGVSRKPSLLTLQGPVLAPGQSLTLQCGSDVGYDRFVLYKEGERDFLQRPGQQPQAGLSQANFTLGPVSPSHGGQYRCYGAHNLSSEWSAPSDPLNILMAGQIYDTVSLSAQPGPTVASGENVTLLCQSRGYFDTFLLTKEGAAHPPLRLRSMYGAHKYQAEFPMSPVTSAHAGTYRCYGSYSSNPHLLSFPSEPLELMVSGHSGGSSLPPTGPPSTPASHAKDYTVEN

[5] = molecular target: T5, LILRA2 (UniProt Q8N149 24-449, limits assumed); experiment: ELISA, coated protein 100ng/well
T5 construct: construct not described
T5 sequence (Q8N149 24-449 limits assumed): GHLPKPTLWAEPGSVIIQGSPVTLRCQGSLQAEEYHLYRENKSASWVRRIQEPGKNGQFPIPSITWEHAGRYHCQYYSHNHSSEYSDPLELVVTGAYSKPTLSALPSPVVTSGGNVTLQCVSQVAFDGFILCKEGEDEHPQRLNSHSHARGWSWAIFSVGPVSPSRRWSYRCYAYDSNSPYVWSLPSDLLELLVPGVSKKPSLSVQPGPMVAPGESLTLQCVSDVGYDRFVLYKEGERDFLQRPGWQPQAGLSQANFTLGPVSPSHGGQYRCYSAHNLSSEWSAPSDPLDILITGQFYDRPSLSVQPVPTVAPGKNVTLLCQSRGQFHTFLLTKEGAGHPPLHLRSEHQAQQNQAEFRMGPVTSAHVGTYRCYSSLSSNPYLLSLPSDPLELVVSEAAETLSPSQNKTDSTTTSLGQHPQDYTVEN

[6] = molecular target: T6, LILRA3 (UniProt Q8N6C8 24-439); experiment: ELISA, coated protein 100ng/well
T6 construct: construct not described
T6 sequence (Q8N6C8 24-439 limits assumed): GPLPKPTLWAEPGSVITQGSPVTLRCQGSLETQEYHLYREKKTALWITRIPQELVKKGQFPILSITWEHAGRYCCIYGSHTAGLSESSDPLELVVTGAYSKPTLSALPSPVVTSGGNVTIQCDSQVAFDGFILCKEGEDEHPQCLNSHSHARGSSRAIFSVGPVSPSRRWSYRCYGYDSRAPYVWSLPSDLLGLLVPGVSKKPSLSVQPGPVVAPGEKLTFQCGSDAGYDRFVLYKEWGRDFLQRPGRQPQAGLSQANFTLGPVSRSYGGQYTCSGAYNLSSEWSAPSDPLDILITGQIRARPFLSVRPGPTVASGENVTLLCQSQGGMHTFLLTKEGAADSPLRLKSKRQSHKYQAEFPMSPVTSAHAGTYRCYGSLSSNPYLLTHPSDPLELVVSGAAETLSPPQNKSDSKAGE

[7] = molecular target: T7, LILRA5 (UniProt A6NI73 42-268, limits assumed); experiment: ELISA, coated protein 100ng/well
T7 construct: construct not described
T7 sequence (A6NI73 42-268 limits assumed): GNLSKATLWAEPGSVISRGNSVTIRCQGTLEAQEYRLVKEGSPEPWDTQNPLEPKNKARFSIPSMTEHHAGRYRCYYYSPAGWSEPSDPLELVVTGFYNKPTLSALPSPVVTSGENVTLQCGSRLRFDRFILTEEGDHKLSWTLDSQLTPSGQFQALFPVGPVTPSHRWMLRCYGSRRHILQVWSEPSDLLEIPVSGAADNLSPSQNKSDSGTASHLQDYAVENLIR

[8] = molecular target: T8, LILRB1 (UniProt Q8NHL6 24-461, limits assumed); experiment: ELISA, coated protein 100ng/well
T8 construct: construct not described
T8 sequence (Q8NHL6 24-461 limits assumed): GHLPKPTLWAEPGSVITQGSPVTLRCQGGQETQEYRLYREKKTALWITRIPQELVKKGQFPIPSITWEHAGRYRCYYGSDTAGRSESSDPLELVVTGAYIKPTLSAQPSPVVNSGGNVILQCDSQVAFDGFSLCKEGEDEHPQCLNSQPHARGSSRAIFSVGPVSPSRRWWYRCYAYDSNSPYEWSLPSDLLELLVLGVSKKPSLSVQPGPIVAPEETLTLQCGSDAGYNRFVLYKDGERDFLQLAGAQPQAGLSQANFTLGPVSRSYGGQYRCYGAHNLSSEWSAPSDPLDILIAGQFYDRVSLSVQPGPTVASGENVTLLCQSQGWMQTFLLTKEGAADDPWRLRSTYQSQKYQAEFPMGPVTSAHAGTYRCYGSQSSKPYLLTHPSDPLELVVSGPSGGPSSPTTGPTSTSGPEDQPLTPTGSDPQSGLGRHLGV

[9] = molecular target: T9, LILRB3 (UniProt O75022 24-443, limits assumed); experiment: ELISA, coated protein 100ng/well
T9 construct: construct not described
T9 sequence (O75022 24-443 limits assumed): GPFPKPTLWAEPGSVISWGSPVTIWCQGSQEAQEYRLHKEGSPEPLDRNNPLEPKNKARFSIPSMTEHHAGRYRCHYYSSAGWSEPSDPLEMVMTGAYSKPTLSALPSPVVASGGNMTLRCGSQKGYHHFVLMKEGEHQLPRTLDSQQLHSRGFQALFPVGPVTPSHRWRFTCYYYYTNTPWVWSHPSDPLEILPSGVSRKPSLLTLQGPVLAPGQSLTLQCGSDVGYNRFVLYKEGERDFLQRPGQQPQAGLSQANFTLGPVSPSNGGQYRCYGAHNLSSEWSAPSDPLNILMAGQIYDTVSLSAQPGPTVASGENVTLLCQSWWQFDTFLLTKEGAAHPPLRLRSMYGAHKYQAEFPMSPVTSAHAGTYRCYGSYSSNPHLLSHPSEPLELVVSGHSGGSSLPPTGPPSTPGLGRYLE

[10] = molecular target: T10, LILRB5 (UniProt O75023 24-458, limits assumed); experiment: ELISA, coated protein 100ng/well
T10 construct: construct not described
T10 sequence (O75023 24-458 limits assumed): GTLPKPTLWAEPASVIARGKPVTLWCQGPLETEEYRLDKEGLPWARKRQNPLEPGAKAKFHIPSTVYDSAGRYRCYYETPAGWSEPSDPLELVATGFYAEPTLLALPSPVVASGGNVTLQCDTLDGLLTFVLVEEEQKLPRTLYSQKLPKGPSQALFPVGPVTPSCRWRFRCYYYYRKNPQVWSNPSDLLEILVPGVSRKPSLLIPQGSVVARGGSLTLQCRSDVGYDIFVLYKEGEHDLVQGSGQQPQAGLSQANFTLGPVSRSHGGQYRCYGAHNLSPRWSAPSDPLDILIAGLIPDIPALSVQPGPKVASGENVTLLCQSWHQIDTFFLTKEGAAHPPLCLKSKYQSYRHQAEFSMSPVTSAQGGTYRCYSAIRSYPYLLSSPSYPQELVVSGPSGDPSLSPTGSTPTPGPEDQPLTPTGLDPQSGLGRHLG

[11] = molecular target: T11, LILRB2 (UniProt Q8N423 22-460, limits assumed); experiment: ELISA, coated protein 100ng/well
T11 construct: construct not described
T11 sequence (Q8N423 22-460 limits assumed): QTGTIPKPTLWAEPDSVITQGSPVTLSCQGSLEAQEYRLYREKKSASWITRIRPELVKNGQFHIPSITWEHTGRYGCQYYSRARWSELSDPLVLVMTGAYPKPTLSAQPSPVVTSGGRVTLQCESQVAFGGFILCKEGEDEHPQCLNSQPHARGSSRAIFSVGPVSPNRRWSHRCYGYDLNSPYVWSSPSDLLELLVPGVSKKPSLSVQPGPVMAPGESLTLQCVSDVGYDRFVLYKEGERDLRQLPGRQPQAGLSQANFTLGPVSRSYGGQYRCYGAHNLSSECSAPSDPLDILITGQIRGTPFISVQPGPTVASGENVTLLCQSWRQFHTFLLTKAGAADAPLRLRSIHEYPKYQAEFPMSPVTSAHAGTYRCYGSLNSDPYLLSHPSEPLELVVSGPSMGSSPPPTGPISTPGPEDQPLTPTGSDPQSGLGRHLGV

[12] = molecular target: T12, THP-1细胞表面的LILRB4 (human, UniProt Q8NHJ6 22-448); experiment: cell-based or functional assay
[13] = molecular target: T2, LILRA1; experiment: ELISA, coated protein 100ng/well, antibody 50μg/mL
[14] = molecular target: T3, LILRA4; experiment: ELISA, coated protein 100ng/well, antibody 50μg/mL
[15] = molecular target: T4, LILRA6; experiment: ELISA, coated protein 100ng/well, antibody 50μg/mL
[16] = molecular target: T5, LILRA2; experiment: ELISA, coated protein 100ng/well, antibody 50μg/mL
[17] = molecular target: T6, LILRA3; experiment: ELISA, coated protein 100ng/well, antibody 50μg/mL
[18] = molecular target: T7, LILRA5; experiment: ELISA, coated protein 100ng/well, antibody 50μg/mL
[19] = molecular target: T8, LILRB1; experiment: ELISA, coated protein 100ng/well, antibody 50μg/mL
[20] = molecular target: T9, LILRB3; experiment: ELISA, coated protein 100ng/well, antibody 50μg/mL
[21] = molecular target: T10, LILRB5; experiment: ELISA, coated protein 100ng/well, antibody 50μg/mL
[22] = molecular target: T1, LILRB4抗原 (人LILRB4蛋白胞外段); experiment: ELISA, coated protein 100ng/well, antibody 50μg/mL
[23] = molecular target: T11, LILRB2; experiment: ELISA, coated protein 100ng/well, antibody 50μg/mL
[24] = molecular target: T12, THP-1细胞表面的LILRB4; experiment: flow cytometry on THP-1 cells, FITC anti-mouse IgG
[25] = molecular target: T12, THP-1细胞表面的LILRB4; experiment: flow cytometry competition on THP-1 cells; competitor FITC-labelled ApoE

Row | Binder | EC50 [1] | binding result [2] | binding result [3] | binding result [4] | binding result [5] | binding result [6] | binding result [7] | binding result [8] | binding result [9] | binding result [10] | binding result [11] | IC50 of inhibition of ARG1 secretion by THP-1 cells with ApoE (arginase activity) [12] | OD 450nm/630nm [13] | OD 450nm/630nm [14] | OD 450nm/630nm [15] | OD 450nm/630nm [16] | OD 450nm/630nm [17] | OD 450nm/630nm [18] | OD 450nm/630nm [19] | OD 450nm/630nm [20] | other results
1 | B1 | 0.0128 µg/mL | no binding (tested: 50μg/mL) | no binding (tested: 50μg/mL) | no binding (tested: 50μg/mL) | no binding (tested: 50μg/mL) | no binding (tested: 50μg/mL) | no binding (tested: 50μg/mL) | no binding (tested: 50μg/mL) | no binding (tested: 50μg/mL) | no binding (tested: 50μg/mL) | no binding (tested: 50μg/mL) | 46 µg/mL | 0.022 OD | 0.028 OD | 0.026 OD | 0.024 OD | 0.056 OD | 0.045 OD | 0.038 OD | 0.022 OD | OD 450nm/630nm [21]: 0.016 OD; OD 450nm/630nm [22]: 2.9 OD; OD 450nm/630nm [23]: 0.055 OD; EC50 [24]: 0.351 µg/mL; IC50 [25]: 0.44 µg/mL
2 | B2 | 0.00835 µg/mL | no binding (tested: 50μg/mL) | no binding (tested: 50μg/mL) | no binding (tested: 50μg/mL) | no binding (tested: 50μg/mL) | no binding (tested: 50μg/mL) | no binding (tested: 50μg/mL) | no binding (tested: 50μg/mL) | no binding (tested: 50μg/mL) | no binding (tested: 50μg/mL) | no binding (tested: 50μg/mL) | 23.9 µg/mL | 0.12 OD | 0.092 OD | 0.054 OD | 0.083 OD | 0.068 OD | 0.077 OD | 0.064 OD | 0.072 OD | OD 450nm/630nm [21]: 0.197 OD; OD 450nm/630nm [22]: 2.97 OD; OD 450nm/630nm [23]: 0.036 OD; EC50 [24]: 0.306 µg/mL; IC50 [25]: 0.204 µg/mL
